Publication PMC314469, “Protein Interaction Networks by Proteome Peptide Scanning” (PLoS Biology, 2004)

T1: amphyphisin SH3 (AMPH_HUMAN), P49418
T1 chain: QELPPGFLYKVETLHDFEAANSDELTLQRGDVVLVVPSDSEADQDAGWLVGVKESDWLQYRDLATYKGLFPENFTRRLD


How the values were obtained:
[1] = biological target: endophilin SH3 (SH3G2_HUMAN), Q99962; assay: SPOT array
[2] = biological target: T1, amphyphisin SH3 (AMPH_HUMAN), P49418; assay: SPOT array

normalised SPOT signal, Boehringer light units (BLU); mean over the file's lines of this peptide [1]	normalised SPOT signal, Boehringer light units (BLU); mean over the file's lines of this peptide [2]	Binder
626	29.7	GLEVPRRPGARTGP [Q9P1Z1 1-14]
205	30.7	GKLPPKRPELPPTL [Q9NVN2 625-638]
35.2	32.6	GKLKLKRPEQLQEV [O15082 431-444]
508	122	GLGSPERPPKTSPG [Q9H6F5 54-68]
88.4	97.6	GLLLLPRPGRPLDL [P13497 12-25]
112	367	GLGELLRPYRSASS [Q14526 480-493]
1860	7430	GKNRPLRPSRRRQL [Q9H5Z2 504-517]
504	13.3	GLLSLRRPAPRRLE [Q9HCE9 329-342]
149	52.6	AKTPLSRPVKRNNA [O43525 89-102]
1320	7740	GGHGPERPKRPGSL [Q9HCE9 771-784]
12.8	3.7	GKRPIKRPAYWRTE [Q9HAH2 675-688]
14800	18500	GGFLPARPPRAQRH [Q9ULP6 14-28]
4690	577	GHTLPPKPPSPRGT [Q9HBQ2 154-168]
22700	18100	GGFKPSRPPRPSRP [O43584 81-95]
418	12.9	GHRDPRRPRPAQLP [O00456 566-579]
536	43.1	GGQPPPRPPPGMPH [Q15427 329-343]
285	34.9	GLRRPEKPPYSYIA [Q12947 93-107]
96.7	105	GINAFARPSKMPYV [P40222 168-181]
9090	499	GKVVPLRPPPPPKS [Q9UHN6 29-43]
214	2370	GHQEFARPSRGYLA [P13385 32-45]
864	53.1	GIRRPEKPPYSYIA [Q12946 16-30]

normalised SPOT signal, Boehringer light units (BLU); mean over the file's lines of this peptide [1]	normalised SPOT signal, Boehringer light units (BLU); mean over the file's lines of this peptide [2]	Binder
687	116	GIPPPKRPLKVSQK [Q9P2B8 1668-1681]
50.3	19.7	ALSHFRRPDVSVQG [Q06265 140-153]
8700	2720	GKGRPDRPARRPSP [Q9ULT2 465-478]
647	76.5	GIPSPRRPMSNLWL [Q14031 953-966]
72.8	28	GGRTPRRPGLQSGG [O94836 58-71]
65.1	20.6	GHGEPRRPPSDPLA [Q14349 378-391]
34.9	32.5	GLSGLKRPSSSAST [Q9P2Q0 476-489]
1350	93.5	GGPSPSRPPPSLFS [O43823 235-249]
2950	78.2	GLSGPSRPPPPPQA [Q9UEE5 25-39]
499	811	GGGSPEKPPSRRRP [O95153 1407-1421]
87.3	13.6	GKPNPRRPKDKMSA [O95985 843-856]
526	4080	ALHVPAKPPRAAAA [Q8WXD9 1334-1348]
141	1220	AKRHPRRPPRSPGM [Q99973 387-400]
1890	2410	GLPAPLRPERLAPV [O94850 125-138]
172	1010	GHRPPGRPRRSPKA [O75866 29-42]
36	35.8	GGVRLRRPSVNGEP [Q9H7M7 1141-1154]
79.9	40.1	GLGGPQKPPPHTEP [Q9H4M7 492-506]
0	45.5	GKSHPKRPNSQSQH [Q9H6W1 84-97]
52.8	1570	GHQEFARPSRGDLA [P51864 32-45]
2950	40.5	GGPRPRRPLLLPNL [Q9UQ05 736-749]
7270	53.5	GIKSPSKPPGPNRI [Q9Y474 19-33]
